The record followed here is patent US20150044169, “METHODS OF […] A […] FAMILY VIRAL INFECTION, COMPOSITIONS FOR […] A […] FAMILY VIRAL INFECTION, AND […] ASSAYS FOR […] COMPOSITIONS FOR […] A […] FAMILY VIRAL INFECTION” (The Board of Trustees of the Leland Stanford Junior …, published 2015).

The data set has as its target Gus (beta-glucuronidase) control (UniProt P05804 P05804:1-603). The data set is described as follows: MITOMI Gus-his negative control. The note with it: tags: C-terminal 6xHis (Roche Gus-his vector); label: Cy3.

Chain of Gus (beta-glucuronidase) control (P05804 whole entry, one chain of several): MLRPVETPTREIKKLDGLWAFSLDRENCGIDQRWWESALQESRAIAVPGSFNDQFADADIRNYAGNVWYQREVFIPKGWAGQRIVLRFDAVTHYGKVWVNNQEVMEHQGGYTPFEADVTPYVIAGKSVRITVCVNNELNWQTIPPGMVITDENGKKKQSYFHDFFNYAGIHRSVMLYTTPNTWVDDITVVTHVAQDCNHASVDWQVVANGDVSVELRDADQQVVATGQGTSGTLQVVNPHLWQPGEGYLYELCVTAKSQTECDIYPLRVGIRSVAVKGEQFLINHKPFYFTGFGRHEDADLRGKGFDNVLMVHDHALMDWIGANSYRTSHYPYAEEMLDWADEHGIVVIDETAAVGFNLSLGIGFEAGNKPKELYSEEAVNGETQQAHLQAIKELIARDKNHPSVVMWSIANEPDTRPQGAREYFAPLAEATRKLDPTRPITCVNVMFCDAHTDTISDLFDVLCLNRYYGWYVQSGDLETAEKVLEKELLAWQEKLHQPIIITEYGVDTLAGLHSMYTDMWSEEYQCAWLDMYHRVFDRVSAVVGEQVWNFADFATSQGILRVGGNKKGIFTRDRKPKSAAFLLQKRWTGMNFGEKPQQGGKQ
Text: For each experiment, an image was taken after MITOMI and the final PBS wash. This was used to determine the concentration of surface bound protein (FITC channel) as well as surface bound target RNA (Cy3 channel). […] Data from multiple data points were averaged, and their standard deviations calculated. Results were then normalized to 1. Between 10-20 replicates were included for each probe tested. A control protein, Gus-his (Roche) was included in each experiment and subjected to the same analysis. When present, detected signal with Gus-his was used for background subtraction.
A microarray of Cy3-labeled target RNA sequences was used to program a microfluidic device, and binding of bodiby-labeled proteins expressed on the device to the RNA sequences was assayed. Results represent the ratio of bound RNA (median Cy3 signal) to expressed protein (median bodipy signal). Normalized mean values for 10-20 replicates measured in two independent experiments are shown. Error bars represent standard deviation. The grey bars represent binding of HuR-his and the clear bars that of Gus-his, used as a negative control.

As to AUUUAUUUAUUUAUUUA (ssRNA) [4A], the binding result is “no binding”.
